Our source for the % inhibition of tau seeding in FRET biosensor cells after immunodepletion, antibody 3 nM and % inhibition of tau seeding in FRET biosensor cells after immunodepletion, antibody 300 nM values is patent US20240150451A1.

B1: hTau60 monoclonal antibody (recombinant, mouse IgG2a/kappa) (antibody, V domains shown)
VH: EVQLQQSGPELVKPGTSVKISCKVFGYTFTDYYMNWVKQSHGKSLEWIGDINPDNGETTYNQKFKGKATLTVDKSSSTAYMELRSLTSEDSAVYYCAKGATFVYWGQGTLVTVSA
VL: DVVMTQTPLSLPVSLGDQASISCISSQSLVHSTGTTFLHWFLQKPGQSPKLLIYKVSNRFSGVPDRFSGSGSGTDFTLKISRVEAEDLGFYFCSQSTYFPLTFGSGTKLEIKR
B2: PT66 monoclonal antibody (recombinant, mouse IgG2a/kappa) (antibody, V domains shown)
VH: QVQLQQPGAELVKPGASVKMSCKASGYTFTSYWITWVKQRPGQGLEWIGDIHPGRGSTKSNEKFKSKATLTVDTSSSTAYMQFSSLTSEDSAVYYCARRWGFDYWGQGTTLTVSS
VL: DIVITQDELSNPVTSGESVSISCRSSKSLLYKDGKTYLNWFLQRPGQSPQLLIYLMSTRASGVSDRFSGSGSGTDFTLEISRVKAEDVGVYYCQQLVDYPLTFGAGTKLELKR
B3: PT69 monoclonal antibody (recombinant, mouse IgG2a/kappa) (antibody, V domains shown)
VH: QVQLQQPGAELVKPGASVKMSCKASGYTFTNYWITWVKQRPGQGLEWIGDIYPGSGRTKSNEKFKNKATLTADTSSSTAYMQLSSLTSEDSAVYYCTRRWGLDYWGQGTTLTVSS
VL: DIVITQDELSNPVTSGESVSISCRSNKSLLYKDGKTYLNWFLQRPGQSPQLLIYLMSTRASGVSDRFSGSGSGTDFTLEISRVKAEDVGVYYCQQLVDYPLTFGAGTKLELKR

For the assay, the target named is tau of P301S transgenic mice (aggregated tau in brainstem; tau seeds from spinal cord) (UniProt P10636). The assay can be described thus: cell-based or functional assay.
tau of P301S transgenic mice (aggregated tau in brainstem; tau seeds from spinal cord), sequence (P10636 other isoform, or with tags, fused parts or gaps P301S P301S): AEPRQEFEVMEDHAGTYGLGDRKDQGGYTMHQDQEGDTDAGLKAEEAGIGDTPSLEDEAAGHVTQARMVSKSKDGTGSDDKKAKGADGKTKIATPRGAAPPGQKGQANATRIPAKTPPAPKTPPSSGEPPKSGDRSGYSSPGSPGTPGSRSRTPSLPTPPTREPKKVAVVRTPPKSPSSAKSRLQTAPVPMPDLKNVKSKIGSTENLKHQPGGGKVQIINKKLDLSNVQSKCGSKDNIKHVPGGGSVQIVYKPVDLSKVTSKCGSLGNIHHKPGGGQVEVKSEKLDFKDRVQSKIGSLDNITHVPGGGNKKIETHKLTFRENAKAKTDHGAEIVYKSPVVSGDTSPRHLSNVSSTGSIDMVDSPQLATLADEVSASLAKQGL
B1: the % inhibition of tau seeding in FRET biosensor cells after immunodepletion, antibody 3 nM was found to be 22% and the % inhibition of tau seeding in FRET biosensor cells after immunodepletion, antibody 300 nM amounted to 99.7%.

In turn, B2 showed a % inhibition of tau seeding in FRET biosensor cells after immunodepletion, antibody 3 nM of 46.5% and a % inhibition of tau seeding in FRET biosensor cells after immunodepletion, antibody 300 nM of 99.7%.

Molecule B3 returned a % inhibition of tau seeding in FRET biosensor cells after immunodepletion, antibody 3 nM of 45.8% and a % inhibition of tau seeding in FRET biosensor cells after immunodepletion, antibody 300 nM of 99.8%.
